B1: Virulence protein F (Agrobacterium tumefaciens (strain 15955)), P15597 (parent)
chain: MRNSSLRDASGSNDAQVPHKTELLNLPDHVLTEVAKRLATNNPVESAENIANFSKSHRFTRDAVRTEPLEKFSSRLKILSRNAKLLSHAVRHAATLPDGEQLSEAQLSQMRSEVATRPVLGVAYTHQDGQPEERLSGNHLDHKINNIPNLVFNVAEPIMFNEISALEVMAEVRPIARSIKTAHDDARAELMSADRPRSTRGL

Variants of: B1
Conditions: with skp1a_arath SKP1A

| Variant | effect of a mutation on the interaction |
| --- | --- |
| MRNSSLRDASGSNDAQVPHKTELLNAADHVLTEVAKRLATNNPVESAENIANFSKSHRFTRDAVRTEPLEKFSSRLKILSRNAKLLSHAVRHAATLPDGEQLSEAQLSQMRSEVATRPVLGVAYTHQDGQPEERLSGNHLDHKINNIPNLVFNVAEPIMFNEISALEVMAEVRPIARSIKTAHDDARAELMSADRPRSTRGL [L26A;P27A] | decreasing interaction strength |

Variants of: B1
Conditions: with skp1b_arath SKP1B

| Variant | effect of a mutation on the interaction |
| --- | --- |
| MRNSSLRDASGSNDAQVPHKTELLNAADHVLTEVAKRLATNNPVESAENIANFSKSHRFTRDAVRTEPLEKFSSRLKILSRNAKLLSHAVRHAATLPDGEQLSEAQLSQMRSEVATRPVLGVAYTHQDGQPEERLSGNHLDHKINNIPNLVFNVAEPIMFNEISALEVMAEVRPIARSIKTAHDDARAELMSADRPRSTRGL [L26A;P27A] | decreasing interaction strength |

— IntAct's records for PubMed 11250154
